{"source": "patent US20250207145A1", "about": "“URIDINE DIPHOSPHATE-GLYCOSYLTRANSFERASE AND A […], TISSUE, AND ORGANISM COMPRISING SAME” (YEDA RESEARCH AND DEVELOPMENT CO. LTD., priority 2022, published 2025)", "molecules": {"B1": {"name": "HuUGT13: UDP-glycosyltransferase from Helichrysum umbraculigerum, recombinantly expressed in E. coli (protein, listed as Helichrysum umbraculigerum)", "chain": "MSLVTNNPHLLVYPLPTSGHIIPLLDLTDLLLRRGLTITVVISTTDLTLLDTLLSSHPTSLHKLYFPDPEIGPSSHPVIARIIATQKLFDPIVKWFESHPSPPVAIISDFFLGWTNELASRLGIRRVVFSPSGALGHSILQSLWRDVAEINAKNVDGNGNYSISFTDIPNSPEFHWWQLSQLLRVHREGDPDFEFFRNGMLANTKSWGIVYNTFERIEKVYIDHVKKQIGHDRVWAIGPLLPEEHGPVGSTARGGSSVVPPHDLLTWLDKKPHDSVVYICFGSRLTLSEKQMSALASALELSNVDFILCVKASGSSFIPSGFEDRVVGRGFVIKGWAPQLAILRHRAVGSFVTHCGWNSTLEGVSSGVMMLTWPMGADQYANAKLLVDQLGVGKRVCEGGPESVPDSTELARLLEESLSGDTSERVKVKELSREANTAVKEGTSIRDLNMFVNLLSEL"}, "B2": {"name": "HuUGT11: UDP-glycosyltransferase from Helichrysum umbraculigerum, recombinantly expressed in E. coli (protein, listed as Helichrysum umbraculigerum)", "chain": "MGSLKKGAHILIFPFPAQGHMLPLLDLTHHLATNGLTITILVTPKNLPILNPLLSSSPNIQPLVFPFPPHPRLPPHVENVKDIGNHANVPITNSLAKLQDQIIQWFNSHHNPPVAIISDFFLGWTQHLANKLGIPRVGFFSSGAYLTAVLDYVCHNIKTVRSQEETVFHDLPNSPCFKFEHLPGLAQIYKESDPEWELVLDGHIANGLSWGWIVNTFDGLESRYMEYLTKKMGVGRVFGVGPVNLLNGSDPMTRGKSESGSDSGVLNWLDGKPDGSVLYVCFGSQKFLTNDQMEGLSIGLEQSGVHYVWVVKDEQGDAIRSGSGRGLVVTGWAPQVSILGHGAVGGFLSHCGWNSVLEAIVNGVMILAWPMEADQFVNAKLLVDDHGIGVWVCEGPNTVPDSTELARKIGESMSTDKSEKVKAKEMKNKANEAVKEGGSSSMELSRLVKELSNFETNGP"}, "B3": {"name": "HuUGT6: UDP-glycosyltransferase from Helichrysum umbraculigerum, recombinantly expressed in E. coli (protein, listed as Helichrysum umbraculigerum)", "chain": "MTQKQMQMQPHFLLVTYPAQGHINPSLQFAERLIRLGVKVTFTTTVSAYRRMSKAGNISEFLNFAAFSDGFDDGFNFETDDHGLFLTQLRSRGKDSLKETILSNAKNGTPISCLVYTLLLPWAPEVARGLNVPSAFLWIQPASVLRLYYYYFNGYNELIGDDCNEPSWSIQLPGLPLLKS"}}, "type_in_all_cases": "biochemical", "key": {"[1]": {"test": "In vitro assays with purified UGTs and an array of cannabinoid substrates", "settings": "purified enzymes", "protocol": "(§1) Selected UGT genes from Helichrysum were individually cloned into the pET28b vector and expressed in E. coli BL21 (DE3) cells. Bacterial starters were grown overnight in LB medium at 37° C., diluted in fresh LB 1:100, and re-incubated at 37° C. When cultures reached A600=0.6, protein expression was induced with 400 μM of isopropyl-1-thio-β-d-galactopyranoside (IPTG) overnight at 15° C. Bacterial cells were lysed by sonication in 50 mM Tris-HCl pH 8, 0.5 mM phenylmethylsulfonyl fluoride (PMSF, Sigma Aldrich) solution in isopropanol, 10% glycerol and protease inhibitor cocktail (Sigma Aldrich), and 1 mg ml-1 lysozyme (Sigma Aldrich). The whole-cell extract was either kept for functional activity or used for protein purification. Purification of proteins was performed on Ni-NTA agarose beads (Adar Biotech). The proteins were eluted with 200 mM imidazole (Fluka) in buffer containing 50 mM NaH2PO4, pH 8 and 0.5 M NaCl. Protein concentration of the eluted fractions was measured with Pierce™ 660 nm protein assay reagent (Thermo Scientific).\nRecombinant UGT assays using different aromatic substrates were performed by mixing 1.5 μl of the UDP solution (80 mM, final concentration: 2.5 mM), 27.5 μl Tris buffer (100 mM), 1 μl of each of the substrates (50 mM, final concentration: 1 mM) and 20 μl of the lysate enzyme solution. The reactions were incubated at 30° C. for 1 h. To stop the reactions, 50 μl methanol were added to each tube, vortexed for 10 s, centrifuged at maximum speed for 10 min, and then the supernatant was recovered and used for UPLC-qTOF analysis. The assay with the purified UGTs was performed by mixing 2 μl of the cannabinoid acceptors (OA, DHSA, CBGA, heliCBGA, CBDA, A9-THCA, CBCA, olivetol, CBG, CBD or 49-THC, hexanoylphloroglucinol, naringenin chalcone or pinocembrin chalcone) in the presence of 1.5 μl UDP 80 mM, 46.5 μl Tris buffer (100 mM, pH 8.0) and 1 μl of each enzyme. To stop the reactions, 100 μl methanol was added to each tube, and the compounds were extracted and analyzed as previously described. Kinetics assays were performed with the purified enzymes (1.5 μg/μl) dissolved in 45 μl Tris buffer (100 mM, pH 8.0) and substrates were added using varying (0.5 μM-3 mM) and constant (1 mM) concentrations of OA and UDP and the total reaction volume was 50 μl. To stop the reactions, 100 μl methanol was added to each tube, and the compounds were extracted and analyzed as previously described.\nNext, the inventors recombinantly expressed eleven of the thirteen UGTs from Helichrysum in E. coli and used the crude lysate to examine the activity of the proteins using OA, CBGA, and heliCBGA in a reaction including UDP-Glc as the sugar donor. […] The inventors screened the LC/HRMS chromatograms for glucosylated and diglucosylated products according to the theoretical m/z values. […] All the enzymes were active with varying substrate specificity and products produced."}, "[2]": {"test": "UGT enzyme assay with crude E. coli lysates, UDP-Glc as sugar donor", "settings": "crude lysate, substrates OA, CBGA, heliCBGA, FIG. 8", "protocol": "as §1, with “The whole-cell extract was either kept for functional activity or used for protein purification. Purification of proteins was performed on Ni-NTA agarose beads (Adar Biotech). The proteins were eluted with 200 mM imidazole (Fluka) in buffer containing 50 mM NaH2PO4, pH 8 and 0.5 M NaCl.” left out\nRecombinant UGT assays using different aromatic substrates were performed by mixing 1.5 μl of the UDP solution (80 mM, final concentration: 2.5 mM), 27.5 μl Tris buffer (100 mM), 1 μl of each of the substrates (50 mM, final concentration: 1 mM) and 20 μl of the lysate enzyme solution. […] To stop the reactions, 100 μl methanol was added to each tube, and the compounds were extracted and analyzed as previously described. […] […]"}, "[3]": {"test": "Steady state kinetics assays of purified UGTs with OA and UDP", "settings": "OA 0.5 μM-3 mM varying, UDP 1 mM constant; compared HuUGT11, HuUGT13, OsUGT, SrUGT; FIG. 12", "protocol": "FIGS. 12A-12B include curves and a table showing comparison of steady state kinetic analysis of HuUGT11 and HuUGT13 versus OsUGT and SrUGT, with olivetolic acid and UDP-glc. (12A) The Michaelis-Menten Km value of each enzyme was calculated using varying (0.5 μM-3 mM) and constant (1 mM) concentrations of olivetolic acid and […] (n=3 technically independent samples; measurements were plotted individually). Since there was no analytical standard available for Glc-OA, V0 was calculated using the calibration curve of OA. (12B) A summary of the results presented in 12A. V0 and Vmax were calculated using the calibration curve of OA since there was no analytical standard available for Glc-OA.\nRecombinant UGT assays using different aromatic substrates were performed by mixing 1.5 μl of the UDP solution (80 mM, final concentration: 2.5 mM), 27.5 μl Tris buffer (100 mM), 1 μl of each of the substrates (50 mM, final concentration: 1 mM) and 20 μl of the lysate enzyme solution. The reactions were incubated at 30° C. for 1 h. […] To stop the reactions, 100 μl methanol was added to each tube, and the compounds were extracted and analyzed as previously described. […] To stop the reactions, 100 μl methanol was added to each tube, and the compounds were extracted and analyzed as previously described."}}}
{"molecule": "B1", "values": [{"measurement": "activity on the cannabinoid intermediates", "setting": "[1]", "result": "highly active"}, {"measurement": "activity on the prenylated compounds", "setting": "[1]", "result": "almost inactive"}, {"measurement": "activity of lysates containing HuUGTs on the different substrates", "setting": "[2]", "result": "showed activity"}]}
{"molecule": "B2", "values": [{"measurement": "catalytic performance in kinetics assays versus the other enzymes", "setting": "[3]", "result": "impressive catalytic advantage"}, {"measurement": "activity on the cannabinoid intermediates", "setting": "[1]", "result": "highly active"}, {"measurement": "activity on the prenylated compounds", "setting": "[1]", "result": "almost inactive"}, {"measurement": "activity of lysates containing HuUGTs on the different substrates", "setting": "[2]", "result": "showed activity"}]}
{"molecule": "B3", "values": [{"measurement": "diglucosylation of acid compounds", "setting": "[1]; UDP-glc, FIG. 11", "result": "only observed in case of HuUGT6"}]}
